Like-named read-outs stand apart in the source and are kept apart here.
Legend:
[1] = Degradation of MeGal4, products by HPAE-PAD; assay type: biochemical; conditions: for Gal2 in reaction products / Gal3 in reaction products / Gal4 in reaction products / Gal in reaction products / MeGal2 in reaction products / MeGal3 in reaction products / MeGal4 in reaction products / MeGal in reaction products: MeGal4 0.25 mg/ml, pH 6.5, 37° C.; for Products from MeGal4: in words, buffer, pH and temperature per enzyme
Description: (§1) The activity on the galacto-oligosaccharide substrates prepared as described above and on the commercially available galactobiose (Gal2, Megazyme) was studied for the four purified galactanases HIGAL, MTGAL, AAGAL and BLGAL. The buffers and temperatures used were: 25 mM sodium acetate, 0.5 mM CaCl2, 0.005% Triton X-100, pH 6.5 at 37° C. for HIGAL and MTGAL, 50 mM sodium acetate, 1 mM CaCl2, pH 4 at 30° C. for AAGAL and 50 mM Mes, 1 mM CaCl2, pH 6.5 at 30° C. for BLGAL. Enzyme concentrations used were 0.8 μg/ml for HIGAL, 0.2 microgram/ml for MTGAL, and 10 micrograms/ml for AAGAL and BLGAL. With HIGAL and MTGAL substrate concentrations were all 0.25 mg/ml, whereas 0.34 mg/ml Gal2, 0.050 mg/ml Gal3 and 0.067 mg/ml Gal4 were used for AAGAL and BLGAL. Enzyme activity in samples withdrawn after various incubation times was inactivated by heating to 95° C. for 10 min. Compositions of reaction products were analysed using HPAE-PAD (Dionex) applying a PA-100 column and a linear gradient of sodium acetate (0-0.18 M) in 0.15 M NaOH. Response factors of the individual carbohydrates were estimated from reference runs with MeGal3, MeGal4, Gal, Gal2, Gal3 and Gal4. Selected results are shown in Tables 2-8 below (the figures indicating weight percentage of glactooligosaccharides).

[2] = assay type: biochemical; conditions: for Gal2 in reaction products / Gal3 in reaction products / Gal4 in reaction products / Gal in reaction products: Gal4 0.25 mg/ml, pH 6.5, 37° C.
Description: as §1

[3] = Activity on galactobiose (Gal2); assay type: biochemical; conditions: in 24 hours; buffer, pH and temperature per enzyme
Description: as §1

B1: MTGAL: GH Family 53 galactanase from Myceliophthora thermophila, SEQ ID NO: 1 (wild type parent) (protein, listed as Myceliophthora thermophila)
chain: ALTYRGVDWSSVVVEERAGVSYKNTNGNAQPLENILAANGVNTVRQRVWVNPADGNYNLDYNIAIAKRAKAAGLGVYIDFHYSDTWADPAHQTMPAGWPSDIDNLSWKLYNYTLDAANKLQNAGIQPTIVSIGNEIRAGLLWPTGRTENWANIARLLHSAAWGIKDSSLSPKPKIMIHLDNGWDWGTQNWWYTNVLKQGTLELSDFDMMGVSFYPFYSSSATLSALKSSLDNMAKTWNKEIAVVETNWPISCPNPRYSFPSDVKNIPFSPEGQTTFITNVANIVSSVSRGVGLFYWEPAWIHNANLGSSCADNTMFSQSGQALSSLSVFQRI
modifications: mat_peptide (1)..()
[1]; incubation time 0.0 hours
  Gal2 in reaction products: 0.0 weight percentage
  Gal3 in reaction products: 0.0 weight percentage
  Gal4 in reaction products: 0.0 weight percentage
  Gal in reaction products: 0.0 weight percentage
  MeGal2 in reaction products: 4.7 weight percentage
  MeGal3 in reaction products: 14.8 weight percentage
  MeGal4 in reaction products: 79.0 weight percentage
  MeGal in reaction products: 1.6 weight percentage
[1]; incubation time 0.5 hours
  Gal2 in reaction products: 3.3 weight percentage
  Gal3 in reaction products: 13.7 weight percentage
  Gal4 in reaction products: 2.5 weight percentage
  Gal in reaction products: 0.9 weight percentage
  MeGal2 in reaction products: 9.6 weight percentage
  MeGal3 in reaction products: 17.1 weight percentage
  MeGal4 in reaction products: 43.9 weight percentage
  MeGal in reaction products: 8.9 weight percentage
[1]; incubation time 2.0 hours
  Gal2 in reaction products: 10.9 weight percentage
  Gal3 in reaction products: 23.9 weight percentage
  Gal4 in reaction products: 3.7 weight percentage
  Gal in reaction products: 4.8 weight percentage
  MeGal2 in reaction products: 13.6 weight percentage
  MeGal3 in reaction products: 16.0 weight percentage
  MeGal4 in reaction products: 10.9 weight percentage
  MeGal in reaction products: 16.2 weight percentage
[1]; incubation time 5.0 hours
  Gal2 in reaction products: 20.1 weight percentage
  Gal3 in reaction products: 17.9 weight percentage
  Gal4 in reaction products: 2.9 weight percentage
  Gal in reaction products: 12.4 weight percentage
  MeGal2 in reaction products: 13.9 weight percentage
  MeGal3 in reaction products: 9.9 weight percentage
  MeGal4 in reaction products: 3.5 weight percentage
  MeGal in reaction products: 19.3 weight percentage
[1]; incubation time 24.0 hours
  Gal2 in reaction products: 32.7 weight percentage
  Gal3 in reaction products: 3.4 weight percentage
  Gal4 in reaction products: 1.1 weight percentage
  Gal in reaction products: 24.2 weight percentage
  MeGal2 in reaction products: 13.3 weight percentage
  MeGal3 in reaction products: 2.3 weight percentage
  MeGal4 in reaction products: 2.9 weight percentage
  MeGal in reaction products: 20.1 weight percentage
[1]
  Products from MeGal4: initial release mainly of MeGal, MeGal2 and Gal3 and some Gal2 but little Gal
[2]
  Products of Gal4 (galactotetraose) degradation: mainly to Gal and Gal2, whereas Gal3 did not accumulate
[2]; incubation time 0.0 hours
  Gal2 in reaction products: 0.0 weight percentage
  Gal3 in reaction products: 42.0 weight percentage
  Gal4 in reaction products: 58.0 weight percentage
  Gal in reaction products: 0.0 weight percentage
[2]; incubation time 0.5 hours
  Gal2 in reaction products: 9.9 weight percentage
  Gal3 in reaction products: 27.7 weight percentage
  Gal4 in reaction products: 50.8 weight percentage
  Gal in reaction products: 11.6 weight percentage
[2]; incubation time 2.2 hours
  Gal2 in reaction products: 17.4 weight percentage
  Gal3 in reaction products: 45.5 weight percentage
  Gal4 in reaction products: 22.3 weight percentage
  Gal in reaction products: 14.9 weight percentage
[2]; incubation time 5.0 hours
  Gal2 in reaction products: 29.1 weight percentage
  Gal3 in reaction products: 29.5 weight percentage
  Gal4 in reaction products: 12.1 weight percentage
  Gal in reaction products: 29.2 weight percentage
[2]; incubation time 72.0 hours
  Gal2 in reaction products: 43.5 weight percentage
  Gal3 in reaction products: 1.5 weight percentage
  Gal4 in reaction products: 0.0 weight percentage
  Gal in reaction products: 54.9 weight percentage
[3]
  Activity on Gal2: Neither of the enzymes HIGAL, MTGAL, AAGAL or BLGAL had any detectable activity

B2: HIGAL: GH Family 53 galactanase from Humicola insolens, SEQ ID NO: 2 (wild type parent) (protein, listed as Humicola insolens)
chain: ALQYKGVDWSSVMVEERAGVRYKNVNGQEKPLEYILAENGVNMVRQRVWVNPWDGNYNLDYNIQLARRAKAAGLGLYINFHYSDTWADPAHQTTPAGWPSDINNLAWKLYNYTLDSMNRFADAGIQVDIVSIGNEITQGLLWPLGKTNNWYNIARLLHSAAWGVKDSRLNPKPKIMVHLDNGWNWDTQNWWYTNVLSQGPFEMSDFDMMGVSFYPFYSASATLDSLRRSLNNMVSRWGKEVAVVETNWPTSCPYPRYQFPADVRNVPFSAAGQTQYIQSVANVVSSVSKGVGLFYWEPAWIHNANLGSSCADNTMFTPSGQALSSLSVFHRI
modifications: mat_peptide (1)..()
[1]; incubation time 0.0 hours
  Gal2 in reaction products: 0.0 weight percentage
  Gal3 in reaction products: 0.0 weight percentage
  Gal4 in reaction products: 0.0 weight percentage
  Gal in reaction products: 0.0 weight percentage
  MeGal2 in reaction products: 4.7 weight percentage
  MeGal3 in reaction products: 14.8 weight percentage
  MeGal4 in reaction products: 79.0 weight percentage
  MeGal in reaction products: 1.6 weight percentage
[1]; incubation time 0.5 hours
  Gal2 in reaction products: 6.3 weight percentage
  Gal3 in reaction products: 20.6 weight percentage
  Gal4 in reaction products: 3.3 weight percentage
  Gal in reaction products: 2.3 weight percentage
  MeGal2 in reaction products: 12.6 weight percentage
  MeGal3 in reaction products: 17.2 weight percentage
  MeGal4 in reaction products: 25.5 weight percentage
  MeGal in reaction products: 12.1 weight percentage
[1]; incubation time 2.0 hours
  Gal2 in reaction products: 5.0 weight percentage
  Gal3 in reaction products: 16.0 weight percentage
  Gal4 in reaction products: 3.2 weight percentage
  Gal in reaction products: 1.6 weight percentage
  MeGal2 in reaction products: 13.2 weight percentage
  MeGal3 in reaction products: 18.4 weight percentage
  MeGal4 in reaction products: 32.1 weight percentage
  MeGal in reaction products: 10.5 weight percentage
[1]; incubation time 5.0 hours
  Gal2 in reaction products: 13.8 weight percentage
  Gal3 in reaction products: 19.7 weight percentage
  Gal4 in reaction products: 3.2 weight percentage
  Gal in reaction products: 7.4 weight percentage
  MeGal2 in reaction products: 16.1 weight percentage
  MeGal3 in reaction products: 15.5 weight percentage
  MeGal4 in reaction products: 7.6 weight percentage
  MeGal in reaction products: 16.6 weight percentage
[1]; incubation time 24.0 hours
  Gal2 in reaction products: 25.3 weight percentage
  Gal3 in reaction products: 9.1 weight percentage
  Gal4 in reaction products: 1.7 weight percentage
  Gal in reaction products: 26.4 weight percentage
  MeGal2 in reaction products: 13.4 weight percentage
  MeGal3 in reaction products: 5.0 weight percentage
  MeGal4 in reaction products: 0.0 weight percentage
  MeGal in reaction products: 19.1 weight percentage
[1]
  Products from MeGal4: initial release mainly of MeGal, MeGal2 and Gal3 and some Gal2 but little Gal
[2]
  Products of Gal4 (galactotetraose) degradation: mainly to Gal and Gal2, whereas Gal3 did not accumulate
[2]; incubation time 0.0 hours
  Gal2 in reaction products: 0.0 weight percentage
  Gal3 in reaction products: 42.0 weight percentage
  Gal4 in reaction products: 58.0 weight percentage
  Gal in reaction products: 0.0 weight percentage
[2]; incubation time 0.5 hours
  Gal2 in reaction products: 8.1 weight percentage
  Gal3 in reaction products: 43.2 weight percentage
  Gal4 in reaction products: 42.9 weight percentage
  Gal in reaction products: 5.8 weight percentage
[2]; incubation time 2.2 hours
  Gal2 in reaction products: 21.9 weight percentage
  Gal3 in reaction products: 39.8 weight percentage
  Gal4 in reaction products: 21.6 weight percentage
  Gal in reaction products: 16.7 weight percentage
[2]; incubation time 5.0 hours
  Gal2 in reaction products: 34.8 weight percentage
  Gal3 in reaction products: 23.9 weight percentage
  Gal4 in reaction products: 5.7 weight percentage
  Gal in reaction products: 35.6 weight percentage
[2]; incubation time 72.0 hours
  Gal2 in reaction products: 33.6 weight percentage
  Gal3 in reaction products: 0.9 weight percentage
  Gal4 in reaction products: 0.2 weight percentage
  Gal in reaction products: 65.2 weight percentage
[3]
  Activity on Gal2: Neither of the enzymes HIGAL, MTGAL, AAGAL or BLGAL had any detectable activity

Reference: patent publication US8367390B2, “Galactanase variants” (Novozymes A/S, priority 2002, dated 2013)
